This data set can be described thus: label from the status in PepcDB records.
“FAMESYFKGDSGEAELLAVAHKVQSDAWALQKAAGIAVIGLDGTLYDQVLDTITWLGAIPPRFKHLSGLQRYYAMARGGAALDMSKFFDTNYHYLVPELGPDVLGPATAAGAPLQPDFSGPLDKLARGQAVVGRERAVPILIGPVTFVSLSRGCELPLDQAVARLLPTYCALLQQLAAAGAPEVQLHEPVLATSEGAGMRAEFETAYAQMAQAAGSVPLHLVTYYDDLGAAYPWAVQLPVAAVTLDFLGPPGAAVPSQTLALLQQHGFPADKRLGAGVVDGRSVWKDDGTAVALLRALLDTGAVSSDRLVVTSSAPLQHLPYDLGLELEAPKTPEAEPHLPPALAARLGFAKQKVEEIVSVARLAASPAAAAAAAGHGAVVQLQRLQQGKGVEDHTAD”: the protein production result is “failed”. Next, “FDKLGNSAAIQEMNREVEAAAKRTSPVFLTGEAGSPFETVARYFHKNGTPWVSPARVEYLIDMPMELLQKAEGGVLYVGDIAQYSRNIQTGITFIIGKAERCRVRVIASCSYAAGSDGISCEEKLAGLFSESVVRIPPLS”: “not failed”; “FHSYTGELKIGASVASGQQVLRPALGKFMRQYPDLKVQLNLVNRRVDFIEEGFDVVIRIGQLNDSMLIAKKLGAINRKIFASPSYLAKQGNPDKVEQLTEHQLLIMNP”: “failed”. Next, “FKAVFISDTHLGTKDSKASLLLEFIKEIETKELYLVGDIIDGWSLKRKWIWLQPHSDVIQKILKAARKGVRVTYILGNHDEFIRPFLPLALGDHIRVVDEATYKAKNKKRYKIVHGDLYDSITMTKKWLAILGDNGYQFLLRLNDPINTLRQRLGFRRYWSFSQFIKDHVKQAVAYISDFEKILVAHAREEKFDGIICGHIHKAEIRDIEGITYMNCGDWVESCTALVETLEGEFKIIRW”: “failed”; “FKDLRLVSYTLLFDFIVSRVIDLIGEGGYAGKGFMIITKRPDQLAKAINDDLGRGVTFISGQGYYSKENLKIIYCIVGRNEIVKTKEMIHRIDPQAFITITEAHEILGEGFTFEKE”: “failed”. Next, “FKVPPFQDCILSFLGFSDEEKHSMEEMTEMQGGSYLPVGDERCTHLIVEENTVKDLPFEPSKKLFVVKQEWFWGSIQMDARAGETMYLYEKANTPE”: “not failed”; “FLILLRKTLEQLQEKDTGNIFSEPVPLSEVPDYLDHIKKPMDFFTMKQNLEAYRYLNFDDFEEDFNLIVSNCLKYNAKDTIFYRAAVRLREQGGAVLRQARRQAEKMG”: “not failed”. Take “FLVTPEGRRIAYRLTDGEGPAVVFCGGFKSDMEGTKALHLQAWAERTGRAFLRFDYSGHGQSEGAFLDGSIGDWFEDARAVCGLLAGPLLLVGSSMGGWISLLLAREMGARVAGLVGIAAAPDFTEDSMWGGFNAAQREALQRAGQVILPSDYSEEPYIITRRLIEEGRRRLVLRDPLELGFPVRLLQGTADVDVPPSVALRLLDHATGPDIRLTLVKGADHRFSTPECLRMIEQAVEELL”: the protein production result is “failed”. The same measure for “FQKYQYPIYYGNAIFLADSPKKIDTPLYSPIKIAFEKALKNAKDSVFIASSYFIPGKKMMKIFKNQISKGIELNILTNSLSSTDAIVVYGAWERYRNQLVRMGANVYEIRNDFFNRQIKGRFSTKHSLHGKTIVFDDNLTLLGSFNIDPRSAYINTESAVLFDNPSFAKRVRLSLKDHAQQSWHLVVYRHRVIWEAVEEGILIHEKTSPDTSFFLRLIKEWSKVLPEREL”: “failed”; for “FSIGVTGVMSAGKSTMLNAILQREILGTSVIPETANLTILRFDQNERAIVRFWNRHEWEMIAQSAQFDEGIDYFMKESLTVFGTVLHEYITQEGRTYEIPLEELSTYTSAKHPSKLCNLVKSVEIFTPLEFLDDGVEIVDTPGLDDPLTQREEITKEYLARCDVMLHLMNAAQPATQKDVDFIIDALIYQNVSRLLVILTRADSLTPQE”: “failed”; for “FTCPITKEEMKKPVKNKVCGHTYEEDAIVRMIESRQKRKKKAYCPQIGCSHTDIRKSDLIQDEALRRAIENHNKKRHRHSE”: “not failed”.

Regarding “GDGNITTENIPVSEYDCLELEGGGMVVNYTQSDAPEGLEIKTDRNIFEKYEFNVENHKLKIRPKKEFRKHTNFRPTEFMVTANSRNLKKLAAAGSTHVNINSPLQAEEFEAGLAGSGIIQFHDTASFTNLKIEIAGSGDFVGHKVYCEELNGDMAGSNTIVLGGTVGIAEFSIAGSGTVRAFDCTMDELECKIAGSGDIEAFVVNKIKAEIAGSGSVKYKGDPQDIQKKVMGSGKIEKVE”, the protein production result is “not failed”. Next, “GEVVLKMKVEGMTCHSCTSTIEGKIGKLQGVQRIKVSLDNQEATIVYQPHLISVEEMKKQIEAMGFPAFVKKIEGR”: “not failed”; “GFVCDDFPKPQITVQPETQSAIKGSDVSFTCSAASSSDSPMTFAWKKDNEALQDAEMENYAHLRAQGGELMEYTTILRLRNVEFTSEGKYQCVISNHFGSSYSVKAKLTIN”: “not failed”. The same measure for “GGLTEICRKPVSPGCISSVSDWLISIGLPMYAGTLSTAGFSTLSQVPSLSHTCLQEAGITEERHIRKLLSAARLFKLPPGPEAM”: “not failed”; for “GHMAIQRRIRRVKTVQMTTNSPIHRSGSVLEPGNWQEYDPFLLLMEDIFERGTFDVHPHRGIETVTYVISGELEHFDSKAGHSTLGPGDVQWMTAGRGVVHKEDPASGSTVHSLQLWVNLPSAYKMTEPRYQNLRSKDMPVRKEEGATIRVFSGSSKGVKAPTKNIVPVTMVEMIVEPGTTVVQDLPGHYNGFLYILEGSGVFGADNIEGKAGQALFFSRHNRGEETELNVTAREKLRLLLYAGEPVNEPVVAYGPFVMNTPEQIREAIRDYQEGRFGR”: “not failed”; for “GIATSDNFMQAFLNVLDQCPKLEVDIPLVKSYLAQFAARAIISELVSISELAQPLESGTHFP”: “failed”. “GKVIVLDAGHGGPDGGAVGGKDIVEKDITLEITKKVQDYLQEQGALVILTREGDYDLAQKDTKSYSRRKAEDLKKRVEIINKPDVDFFASIHLNALTSSGSKGAQTFYYRSSIENERAAKFIQAELRTSLENTNRSAKTISHVYLLKYAKTPGALIEAGFLSNVNERYMLNSEKYQQKVAAAVYRGILRYFTEKGNPPE”: the protein production result is on record as “failed”. The same measure for “GLGFMALDEDLRIIYVNSGCLRHVRRSRDELLGRVVTEVLPETQGSYFDALCRKVLATGREQQTRVDSLYSPGMTIEVTAAADSGALVVHFRDVTAE”: “not failed”. The same measure for “GMIDGHHHLTQSFAKSLAYGEPSEIFKRIWVPLESNLNEQFVYLCTKLAALESLRGGFTTVCDAGTRSEIGMQLMVRALEETGLRCVLSLICNDGRAHSTLELRQNILENAQIFIKSYKQHKNVHPSLAISIPEVASDDMLYEVSKLCANSNIIFQVHVNEHLASVERSIIQQGMRPLEHLAKVGALGPQTLIAHATMLTPSELLLLQRTDTAVSYNPVASQWKGNAVASAHLMHELNIRFALGTDATRADGFRLLDAAEATQKLIFGIPTGDCSTGGGWMWLDHATTAGAEAVGLSQL”: “failed”; for “GQPSNDKKNVLPDWAFGGFERPQGANPVISPIENTKFYCPMTQDYVAWESNDTFNPAATLHDGKIVVLYRAEDKSGVGIGHRTSRLGYATSSDGIHFKREKTPVFYPDNDTQKKLEWPGGCEDPRIAVTAEGLYVMTYTQWNRHIPRLAIATSRNLKDWTKHGPAFAKAYDGKFFNLGCKSGSILTEVVNGKQVIKKIDGKYFMYWGEEHVFAATSEDLVNWTPYVNTDGSLRKLFSPRDGHFDSQLTECGPPAIYTPKGIVLLYNGKNSASRGDKRYTANVYAAGQALFDANDPTRFITRLDEPFFRPMDSFEKSGQYVDGTVFIEGMVYYKDKWYLYYGCADSKVGMAIYNPKKPAAADPLP”: “not failed”; for “GQTFAGVIRGVQSYGFFVQIEALQVEGLVHVSSPKDDWYEYRSRQQRLIGRKNRRQFGLGDRVEVEIRNVDYYRQQIDLGVLPLP”: “failed”.

Values taken from a protein production outcome set (Wang et al. 2014).
